According to article PMC10720262 (Cell Reports, 2023):
Where a chain is given by its changes, count along the chain named.

Columns and labels:
[1] = biological target: T1, recombinant full-length PfCSP (Plasmodium falciparum circumsporozoite protein, strain NF54) (Plasmodium falciparum NF54, UniProt P19597)
[2] = biological target: T1, recombinant full-length PfCSP …; assay: cell-based or functional assay
NANP6 peptide = biological target: T2, NANP6 peptide (Plasmodium falciparum NF54); assay: SPR; Carterra LSA; mAb amine-coupled to a CMD200M chip, peptide titrated in 2-fold steps up to 8 ug/mL without regeneration; 25 C; HBSTE (10 mM HEPES pH 7.4, 150 mM NaCl, 3 mM EDTA, 0.01% Tween 20); 1:1 Langmuir model; mean of triplicates; KD includes avidity for antigens with several repeats; details: both partners purified
T2 construct: source: synthetic peptide (CPC Scientific)

T1 sequence (P19597 20-375): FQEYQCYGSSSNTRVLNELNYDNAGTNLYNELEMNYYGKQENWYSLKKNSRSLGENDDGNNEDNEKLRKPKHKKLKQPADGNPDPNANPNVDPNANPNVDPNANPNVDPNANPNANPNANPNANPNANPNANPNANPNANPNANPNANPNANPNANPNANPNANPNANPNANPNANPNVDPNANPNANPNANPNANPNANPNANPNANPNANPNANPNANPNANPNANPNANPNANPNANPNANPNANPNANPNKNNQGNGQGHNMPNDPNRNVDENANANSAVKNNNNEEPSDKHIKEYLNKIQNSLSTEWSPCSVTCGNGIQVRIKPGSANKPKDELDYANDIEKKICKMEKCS

B1: CL-531969 (antibody, V domains shown)
VH: QVQLVESGGGVVQPGRSLRLSCAASGFTFSSSGMHWVRQAPGMGLEWVAIIWYDGSNKFYADSVKGRFTISRDNSKNTLYLQMNSLRAEDTAVYYCARAYVSGNYGDNYGMDVWGQGTTVTVSS
VL: DIQMTQSPSTLSASVGDRVTITCRASQSISSWLAWFQQKPGKAPKLLIYKASSLESGVPSRFSGSGSGTEFTLTINSLQPDDFATYFCQQYNYYWTFGQGTKVEIK
B1: binds [1].

B2: CL-532061 (antibody, V domains shown)
VH: QVQLVESGGGVVQPGRSLRLSCVASRFTFSNYGMHWVRQTPGKGLEWVAIIWYDGSNKFYGDSVKGRFTISRDNSRNTLYLQMNNLRAEDTAVYYCARAYDDFVDHDKYGMDVWGQGTTVTVSS
VL: B1 VL with T22S, S31I, F36Y, P40S, S53R, N76S, F87Y, Y93S
B2: binds [1].

B3: CL-532151 (antibody, V domains shown)
VH: B1 VH with R16G, S31G, Q39H, M43K, K76R, N108K
VL: B1 VL with S31N
B3: binds [1].

B4: mAb Ky15.1 (human IgG1) (antibody, V domains shown)
VH: QVQLVESGGGVVQPGRSLRLSCAASGFTFSNFGMHWVRQTPDRGLEWVAIIWFDGSNTFYADSVKGRFTISRDNYKNTLYLQMNSLRAEDTAVYFCARSFYSDSAGSLFDYWGQGTLVTVSS
VL: DIQMTQSPSTLSASVGDRVTITCRASQSISSWVAWYQQKPGKAPKLLIYKASDLETGVPSRFSGSGSGTEFTLTISGLQPDDFVTYYCLQNMRYWTFGQGTKVEIK
For B4, the other [2] was < 1.5 µg/mL.

B5: mAb Ky230 (human IgG1) (antibody, V domains shown)
VH: QVQLVESGGGVVQPGRSLRLSCAASGFTFSDYGMHWVRQAPGKGLEWVAIIWHDGSNKYYVDSVKGRFTISRDNSKNTLYLQMNSLRAEDTAVYYCARAASSFGSGFDYWGQGTLVTVSS
VL: DVVMTQSPLSLPVTLGQPASIFCRSSQSLVYSDGNTYLNWFQRRPGQSPRRLIYKVSDRDSGVPDRFSGSGSGTDFTLQISRVEAEDVGVYYCMQGTHWPPTFGQGTKVEIK
With B5 the other [2] was < 1.5 µg/mL.

B6: mAb Ky311 (human IgG1) (antibody, V domains shown)
VH: QMHLVESGGGVVQPGRSLRLSCVASGFTFNNHGMHWVRQAPGKGLEWVAVIWHDGSNKFYADSVNGRFIVSRDNSKNTLYLHMNSLRAEDTAVYYCARDFFVSGSYNYFDPWGQGTLVTVSS
VL: EIVLTQSPVTLSLSPGERATLSCRASQSVSNYLAWYQQKPGQAPRLLIYDAANRATGTPARFSGSGSGTDFTLTISSLEPEDFAVYFCQQRSKWFTFGPGTKLDIK
For B6, the other [2] was < 1.5 µg/mL.

B7: mAb Ky315 (human IgG1) (antibody, V domains shown)
VH: QVQLVESGGGVVQPGRSLRLSCAASGFTLSNYGVHWVRQAPGTGLEWVALIWYDGSNKFYADSVKGRFTISRDNSMDIVYLQMNNLRAEDTALYYCVRPGIAAAGSNYYAMDVWGQGTAVTVSS
VL: EIVMTQSPATLSMSPGERATLSCRASQSVGSDLAWFQQKPGQAPRLLIYGAFTRATGIPARFSGSGSGSEFTLTISSLQSEDFAVYYCQQYNRWWTFGQGTKVEMK
For B7, the other [2] was < 1.5 µg/mL.

B8: mAb Ky15.2 (human IgG1) (antibody, V domains shown)
VH: QVLLVESGGGVVQPGTSLRLSCVASGFSFSTYGMHWVRQSPGKGLEWVAIIWYDGGNKFYADSVQGRFTVSRDNSKNTLYLQMNSLRAEDTAVYYCAKAYRTSLDKKYGMDVWGQGTTVTVSS
VL: B1 VL with S30A, F36Y, N76S, Q79H, Y91F, N92T, Y93S
B8 was tested, and the other [2] was < 1.5 µg/mL.

B9: mAb Ky15.3 (human IgG1) (antibody, V domains shown)
VH: QVQLVESGGGVVQPGRSLRLSCVASGFTFSNAGMHWVRQTPGKGLEWVAIIWYDGSIKYYGESVKGRFTISRDNSKNTLYLEMSSLRAEDTAVYFCVRAYSGSLYDKYGMDVWGQGTTVIVSS
VL: DIQMTQSPSTLSASVGDRVTISCRASQTISTWLAWFQQKPGKAPKLLIYAASSLQSGVPSRFSGSGSGTDFTLTISNLQPDDFATYYCQQFNSYWTFGQGTKVEIK
For B9, the other [2] was < 1.5 µg/mL.

B10: mAb Ky15.5 (human IgG1) (antibody, V domains shown)
VH: QVQMVASGGGVVQPGRSLRLSCAVSGFTFRNFGMHWVRQDPGRGLEWVAIIWYDGSYEFYADSVKGRFTISRDNSKNTLYLQMNSLRAEDTAVYYCARSYGSLTGDETKYGMDVWGQGTTVTVSS
VL: B1 VL with N76S, F87Y, N92K, Y93N
For B10, the other [2] was < 1.5 µg/mL.

B11: mAb Ky15.7 (human IgG1) (antibody, V domains shown)
VH: QVQVVESGGGAVQPGRSLRLSCAASGFTFSNRGMHWVRQTPGKGLEWVAIIWYDGGNKFYADSVKGRFTISRDNSKNTLYLQMNSLRDEDTAVYYCVRAGDWKADKYTMDVWGQGTTVTVSS
VL: B1 VL with F36Y, L46V, K50Q, N76S, F87Y, Y93S
In the case of B11, the other [2] is reported as < 1.5 µg/mL.

B12: Ky15.7 (antibody, V domains shown)
VH: B11 VH
VL: B1 VL with F36Y, L46V, K50Q, N76S, F87Y, Y93S
notes: source: CHO-3E7, purified (MabSelect SuRe LX)
Work on B12 yielded a Kd (NANP6 peptide) of 0.113 nM.

B13: Ky15.8 (antibody, V domains shown)
VH: QVQLVESGGNVVQPGRSLRLSCTASGFTFSSYGMHWVRQAPDKGLEWVAIIWYDGGNKFYADSVKGRFTISRDNSKDTLYLQMNSLRAEDTAVYYCAKAWYKIDDKYSMDVWGQGTTVTVSS
VL: not shown
notes: as for B12
With B13 the Kd (NANP6 peptide) was ≤ 0.0312 nM.

B14: Ky15.10 (antibody, V domains shown)
VH: QVQLVESGGGVVQPGRSLRLSCAASGFTFSNSGMHWVRQVPGKGLEWVAIIWYDGSNKYYADSVKGRFSVSRDNSENTLYLQMSNLRAEDTAVYYCVRAYFDSENLYDYYGMDVWGQGTTVTVSS
VL: B1 VL with S31R, Q38K, K50T, S53N, N76S, F87Y, N92Y, Y93N, I105V
notes: as for B12
For B14, the Kd (NANP6 peptide) was 0.0153 nM.

B15: Ky15.11 (antibody, V domains shown)
VH: QVQLVESGGGVVQPGRSLRLSCEASGFTFSNFGMHWVRQTPVKGLEWVAIIWFDGSYKYYTDSVKGRFTISRDNSKNTLYLQMNSLRAEDTAVYYCARARKGQRSDYYGSETSYTFDNWGQGTLVTVSS
VL: B1 VL with S30N, S31G, F36Y, L46F, S53I, V58I, N76S, F87Y, N92S, Y93S
notes: as for B12
B15 was tested, and the Kd (NANP6 peptide) was ≤ 0.0357 nM.

B16: Ky15.1 (antibody, V domains shown)
VH: B4 VH
VL: B4 VL
notes: as for B12
B16 gave a Kd (NANP6 peptide) of 0.0384 nM.

B17: Ky224 (antibody, V domains shown)
VH: QVQLVESGGGVVQPGRSLRLSCAASGFTFSVYGMHWVRQAPGKGLEWVAVIWYDGSNKIYADSVKGRFTISRDNSKNTLYLQMDSLSAADTAVYYCAKIGSSSFDYWGQGTLVIVSS
VL: DIVMTQTPLSSPVTLGQPASISCRSSQSLVHSNGITYLSWLQQRPGQPPRLLLYEISNRFSGVPDRFSGSGTGTDFTLKISRVEAEDVGVYYCMQTTQFPITFGQGTRLEIK
notes: as for B12
Work on B17 yielded a Kd (NANP6 peptide) of 1.34 nM.

B18: Ky230 (antibody, V domains shown)
VH: B5 VH
VL: B5 VL
notes: as for B12
With B18 the Kd (NANP6 peptide) was 0.257 nM.

B19: Ky311 (antibody, V domains shown)
VH: B6 VH
VL: B6 VL
notes: as for B12
With B19 the Kd (NANP6 peptide) was ≤ 0.0233 nM.

B20: Ky315 (antibody, V domains shown)
VH: B7 VH
VL: B7 VL
notes: as for B12
With B20 the Kd (NANP6 peptide) was 0.0723 nM.

B21: Ky15.2 (antibody, V domains shown)
VH: B8 VH
VL: B1 VL with S30A, F36Y, N76S, Q79H, Y91F, N92T, Y93S
notes: as for B12
Work on B21 yielded a Kd (NANP6 peptide) of 0.0713 nM.

B22: Ky15.3 (antibody, V domains shown)
VH: B9 VH
VL: B9 VL
notes: as for B12
With B22 the Kd (NANP6 peptide) was ≤ 0.0174 nM.

B23: Ky15.5 (antibody, V domains shown)
VH: B10 VH
VL: B1 VL with N76S, F87Y, N92K, Y93N
notes: as for B12
B23 was tested, and the Kd (NANP6 peptide) was ≤ 0.0369 nM.
